From paper PMC4488300

Target: Francisella tularensis ssp. holarctica macrophage locus protein A (MglA) (F. tularensis ssp. holarctica) (UniProt Q5NFG1)
Test: cross-linking + SEC

Francisella tularensis ssp. holarctica macrophage locus protein A (MglA) (from UniProt Q5NFG1 1-205) (natural protein)
stoichiometry N: 2
